Blank lines part the entries; values can stand above or below the binder they belong to.
Target: T1, BSA (UniProt P02769 25-607)
T1 construct: Negative control coating; also called BSA coating alone; BSA+wash
Assay: ELISA, plate coated with BSA only, dilutions of fusion protein, anti-human IgG1 immunodetection complex, A405
Method: Known RAGE ligands were coated onto the surface of Maxisorb plates at a concentration of 5 micrograms per well. Plates were incubated at 4° C. overnight. Following ligand incubation, plates were aspirated and a blocking buffer of 1% BSA in 50 mM imidizole buffer (pH 7.2) was added to the plates for 1 hour at room temperature. The plates were then aspirated and/or washed with wash buffer (20 mM Imidizole, 150 mM NaCl, 0.05% Tween-20, 5 mM CaCl₂ and 5 mM MgCl₂, pH 7.2). […] The RAGE fusion protein was added at increasing dilutions of the initial sample. The RAGE fusion protein was allowed to incubate with the immobilized ligand at 37° C. for one hour after which the plate was washed and assayed for binding of the RAGE fusion protein. Binding was detected by the addition of an immunodetection complex containing a monoclonal mouse anti-human IgG1 diluted 1:11,000 to a final assay concentration (FAC) of 21 ng/100 μL, a biotinylated goat anti-mouse IgG diluted 1:500, to a FAC of […], and an avidin-linked alkaline phosphatase. […] Binding of the complex to the immobilized RAGE fusion protein was quantified by measuring conversion of PNPP to para-nitrophenol (PNP) which was measured spectrophotometrically at 405 nm.

T1 sequence (P02769 25-607 limits assumed): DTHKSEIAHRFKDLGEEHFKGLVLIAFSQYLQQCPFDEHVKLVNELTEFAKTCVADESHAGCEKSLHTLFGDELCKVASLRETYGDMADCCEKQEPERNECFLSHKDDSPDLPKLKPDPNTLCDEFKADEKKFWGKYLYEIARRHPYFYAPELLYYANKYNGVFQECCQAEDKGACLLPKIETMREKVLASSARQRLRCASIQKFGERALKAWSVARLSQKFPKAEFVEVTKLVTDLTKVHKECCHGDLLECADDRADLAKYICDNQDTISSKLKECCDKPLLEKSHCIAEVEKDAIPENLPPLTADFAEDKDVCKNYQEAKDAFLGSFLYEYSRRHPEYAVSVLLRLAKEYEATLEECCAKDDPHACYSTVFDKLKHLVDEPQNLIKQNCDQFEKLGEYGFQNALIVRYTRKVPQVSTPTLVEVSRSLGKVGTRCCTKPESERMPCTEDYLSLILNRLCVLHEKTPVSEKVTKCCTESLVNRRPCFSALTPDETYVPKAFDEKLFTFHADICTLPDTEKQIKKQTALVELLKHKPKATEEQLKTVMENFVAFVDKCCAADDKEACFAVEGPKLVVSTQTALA

binding result: no binding
B1: RAGE fusion protein TTP-4000 (Fc fusion)
chain: QNITARIGEPLVLKCKGAPKKPPQRLEWKLNTGRTEAWKVLSPQGGGPWDSVARVLPNGSLFLPAVGIQDEGIFRCQAMNRNGKETKSNYRVRVYQIPGKPEIVDSASELTAGVPNKVGTCVSEGSYPAGTLSWHLDGKPLVPNEKGVSVKEQTRRHPETGLFTLQSELMVTPARGGDPRPTFSCSFSPGLPRHRALRTAPIQPRVWEPVPLEEVQLVVEPEGGAVAPPSVFLFPPKPKDTLMISRTPEVTCVVVDVSHEDPEVKFNWYVDGVEVHNAKTKPREEQYNSTYRVVSVLTVLHQDWLNGKEYKCKVSNKALPAPIEKTISKAKGQPREPQVYTLPPSRDELTKNQVSLTCLVKGFYPSDIAVEWESNGQPENNYKTTPPVLDSDGSFFLYSKLTVDKSRWQQGNVFSCSVMHEALHNHYTQKSLSLSPGK
modifications: N-terminal residue glutamine (Q) or pyroglutamic acid (pE) or a mixture thereof; glycosylation sites at N2 and N288 (numbering of the processed protein); C-terminal residue may be cleaved off
notes: The end of the range (461) is derived from the coding length 1-1386 and from residues P459 and G460 near the terminal codon; also called TT4; four domain fusion protein

binding result: no binding
B2: RAGE fusion protein TTP-3000 (Fc fusion)
chain: QNITARIGEPLVLKCKGAPKKPPQRLEWKLNTGRTEAWKVLSPQGGGPWDSVARVLPNGSLFLPAVGIQDEGIFRCQAMNRNGKETKSNYRVRVYQIPGKPEIVDSASELTAGPSVFLFPPKPKDTLMISRTPEVTCVVVDVSHEDPEVKFNWYVDGVEVHNAKTKPREEQYNSTYRVVSVLTVLHQDWLNGKEYKCKVSNKALPAPIEKTISKAKGQPREPQVYTLPPSRDELTKNQVSLTCLVKGFYPSDIAVEWESNGQPENNYKTTPPVLDSDGSFFLYSKLTVDKSRWQQGNVFSCSVMHEALHNHYTQKSLSLSPGK
modifications: N-terminal glutamine may be cyclized to pyroglutamic acid (SEQ ID NO: 19)
notes: The range 24-346 is derived from this and from the coding length 1-1041; No characterization of the expressed TTP-3000 is reported; also called TT3; three domain fusion protein
